Legend:
[1] = system: PI16 mRNA in NHDF (Normal Human Dermal Fibroblast); experiment: Timing of PI16 mRNA expression after TGFbeta treatment (RTqPCR); format: cell-based; details: after 1 h of TGFbeta, FIG. 4A and B
Procedure: Quantitative real-time PCR (RT-qPCR) was done using 5 μL of 1:20 diluted cDNA on the LightCycler480 system (Roche) using Maxima SYBR Green qPCR Master Mix (Fermentas). Forward and reverse primers were designed by Eurofins (MWG, αSMA forward: […] (SEQ ID NO:1), αSMA reverse: […] (SEQ ID NO:2)) and a 100 μM stock was stored at −20° C. Forward and reverse primer pairs were used for each RT-qPCR reaction. The cycling conditions were as follows: an initial 95° C. for 10 minutes, followed by 45 cycles of 95° C. for 15 sec, 58° C. for 30 sec, 72° C. for 20 sec. LightCycler 480 SW 1.5 was used to evaluate the TM curves, to determine the Cp and to approximate the relative concentration for each amplification reaction.
NHDF (Normal Human Dermal Fibroblast) were treated with TGFbeta as described previously for different times (between 1 h and 96 h). After treatment mRNA were extracted and levels of PI16 mRNA were assessed by RTqPCR.

αSMA expression in NHDF = experiment: Ex vivo model for fibrosis or hypertrophic scar: αSMA expression by RT-qPCR and Western Blot; format: cell-based, human; details: fibroblasts cultivated with TGF-β (10 ng/mL TGF-β1); FIGS. 1 and 2
Procedure: To study the myofibroblasts involved in generating hypertrophic or keloid scars, NHDF were cultivated on collagen coated culture plates in DMEM-F12 (Invitrogen), supplemented with 10% FCS (Invitrogen), 5 μg/mL of insulin and 1 ng/mL of b-FGF (PromoKine) and 10 ng/mL of TGF-β1 (Promocell), as TGF-β1 is known to induce the expression of αSMA in fibroblasts (Desmouliere A, Geinoz A, Gabbiani F, Gabbiani G (1993) Transforming growth factor-beta 1 induces alpha-smooth muscle actin expression in granulation tissue myofibroblasts and in quiescent and growing cultured fibroblasts. J Cell Biol, 1993 July, 122(1): 103-111). […]
This αSMA expression was assessed by RT-qPCR (mRNA levels) and by Western Blot (protein).
Total proteins were extracted by scratching the cells with lysis buffer (TRIS, NaCl, NP40, EDTA, IMDTT) and incubated 30 min in ice. […] Protein concentration was determined according to BCA method (Sigma). […] Signals were detected by ECL chemiluminescence using UptiLight HS WB Substrate (Uptima, Interchim). Bands were digitized with a scanner and the ratio between all bands density of the same blot was calculated by software (ImageJ 1.43u, 64-bit). […]
After four days of experiment, treated fibroblasts were detached with TRIzol Reagent (Invitrogen) and stored at −80° C. […] Total RNA was quantified on the NanoDrop 2000c Spectrophotometer (Thermo Scientific). […]

## TGF-β: TGF-β1 (Promocell), known to induce the expression of αSMA in fibroblasts
[1]
  PI16 mRNA up regulation after TGFbeta treatment: 3 ×
αSMA expression in NHDF
  αSMA expression (mRNA and protein): high level
